Reference: patent US20200173986A1

Biological target: endogenous SNAP25 in total cell lysate
Experiment: sandwich ELISA with total cell lysate, fusion supernatant

Chain of endogenous SNAP25 in total cell lysate (P60879 whole entry, the tested form may be a part): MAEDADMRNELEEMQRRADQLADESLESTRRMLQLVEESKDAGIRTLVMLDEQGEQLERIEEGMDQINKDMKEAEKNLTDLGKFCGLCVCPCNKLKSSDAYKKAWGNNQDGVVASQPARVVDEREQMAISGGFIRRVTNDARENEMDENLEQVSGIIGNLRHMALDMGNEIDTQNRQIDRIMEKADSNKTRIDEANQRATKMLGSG

B1: B4 IgG (antibody, V domains shown)
VH: EVKLVESGGGLVKPGGSLKLSCAASGFTFSNYGMSWVRQTPEKRLEWVATISSGGSYTYYPDSVKGRFTISRDNAKNTLYLQMSSLRSEDTAMYYCARHEGGGNPYFDYWGQGTTLTVSS
VL: DVLMTQTPLSLPVSLGDQASISCRSSQSLVHSNGNTYLHWYLQKPGQSPKLLIYKVSNRFSGVPDRFSGSGSGTDFTLKISRVEAEDLGVYFCSQNTLVPWTFGGGTKLEIK
ELISA signal (A450): 0.1
